# Test results from patent EP4563528A1.
# Tests used:
# human IgG (human) [1] = experiment: depletion of 10 mg/ml IgG solution, 1 mg particles per 50 µL, single half-hour incubation
# human IgG (human) [2] = experiment: depletion of IgG from 50 µL human serum with 1 mg nanoparticles, 60 min with stirring at room temperature
substance,measurement,setting,value
"protein G' (protein G devoid of the albumin recognition region), covalently bound to silica mesoporous nanoparticles (from UniProt P19909 314-497)",percent of IgG removed,human IgG (human) [1],> 90%
same,IgG elimination capacity,human IgG (human) [2],> 90%
